Biological target: PD-1 antigen with murine Fc tags (human) (UniProt Q15116)
Assay: SPR (Biacore T200), PD-1-mFc captured by anti-mouse Fc antibody, 100 nM antibody injected

Sequence of PD-1 antigen with murine Fc tags (human) (Q15116 25-167 limits assumed): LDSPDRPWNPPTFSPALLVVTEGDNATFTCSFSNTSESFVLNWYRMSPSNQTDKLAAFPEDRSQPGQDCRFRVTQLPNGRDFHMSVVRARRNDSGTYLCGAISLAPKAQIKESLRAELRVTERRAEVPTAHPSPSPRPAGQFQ

Bound antibody signal (RU): 128 RU
B1: JS001 (recombinant humanized anti-PD-1 monoclonal antibody reference article, Toripalimab) (antibody, human IgG4 S228P, kappa, V domains shown)
VH: QGQLVQSGAEVKKPGASVKVSCKASGYTFTDYEMHWVRQAPIHGLEWIGVIESETGGTAYNQKFKGRVTITADKSTSTAYMELSSLRSEDTAVYYCAREGITTVATTYYWYFDVWGQGTTVTVSS
VL: DVVMTQSPLSLPVTLGQPASISCRSSQSIVHSNGNTYLEWYLQKPGQSPQLLIYKVSNRFSGVPDRFSGSGSGTDFTLKISRVEAEDVGVYYCFQGSHVPLTFGQGTKLEIKR

Source: patent EP4717714A1
